Columns and labels:
[1] = system: FVIII169/VWF057 heterodimer
[2] = system: FVIII169/VWF059 heterodimer
Sequence of FVIII169/VWF059 heterodimer (chain, as listed by the source, chain 1 of 2): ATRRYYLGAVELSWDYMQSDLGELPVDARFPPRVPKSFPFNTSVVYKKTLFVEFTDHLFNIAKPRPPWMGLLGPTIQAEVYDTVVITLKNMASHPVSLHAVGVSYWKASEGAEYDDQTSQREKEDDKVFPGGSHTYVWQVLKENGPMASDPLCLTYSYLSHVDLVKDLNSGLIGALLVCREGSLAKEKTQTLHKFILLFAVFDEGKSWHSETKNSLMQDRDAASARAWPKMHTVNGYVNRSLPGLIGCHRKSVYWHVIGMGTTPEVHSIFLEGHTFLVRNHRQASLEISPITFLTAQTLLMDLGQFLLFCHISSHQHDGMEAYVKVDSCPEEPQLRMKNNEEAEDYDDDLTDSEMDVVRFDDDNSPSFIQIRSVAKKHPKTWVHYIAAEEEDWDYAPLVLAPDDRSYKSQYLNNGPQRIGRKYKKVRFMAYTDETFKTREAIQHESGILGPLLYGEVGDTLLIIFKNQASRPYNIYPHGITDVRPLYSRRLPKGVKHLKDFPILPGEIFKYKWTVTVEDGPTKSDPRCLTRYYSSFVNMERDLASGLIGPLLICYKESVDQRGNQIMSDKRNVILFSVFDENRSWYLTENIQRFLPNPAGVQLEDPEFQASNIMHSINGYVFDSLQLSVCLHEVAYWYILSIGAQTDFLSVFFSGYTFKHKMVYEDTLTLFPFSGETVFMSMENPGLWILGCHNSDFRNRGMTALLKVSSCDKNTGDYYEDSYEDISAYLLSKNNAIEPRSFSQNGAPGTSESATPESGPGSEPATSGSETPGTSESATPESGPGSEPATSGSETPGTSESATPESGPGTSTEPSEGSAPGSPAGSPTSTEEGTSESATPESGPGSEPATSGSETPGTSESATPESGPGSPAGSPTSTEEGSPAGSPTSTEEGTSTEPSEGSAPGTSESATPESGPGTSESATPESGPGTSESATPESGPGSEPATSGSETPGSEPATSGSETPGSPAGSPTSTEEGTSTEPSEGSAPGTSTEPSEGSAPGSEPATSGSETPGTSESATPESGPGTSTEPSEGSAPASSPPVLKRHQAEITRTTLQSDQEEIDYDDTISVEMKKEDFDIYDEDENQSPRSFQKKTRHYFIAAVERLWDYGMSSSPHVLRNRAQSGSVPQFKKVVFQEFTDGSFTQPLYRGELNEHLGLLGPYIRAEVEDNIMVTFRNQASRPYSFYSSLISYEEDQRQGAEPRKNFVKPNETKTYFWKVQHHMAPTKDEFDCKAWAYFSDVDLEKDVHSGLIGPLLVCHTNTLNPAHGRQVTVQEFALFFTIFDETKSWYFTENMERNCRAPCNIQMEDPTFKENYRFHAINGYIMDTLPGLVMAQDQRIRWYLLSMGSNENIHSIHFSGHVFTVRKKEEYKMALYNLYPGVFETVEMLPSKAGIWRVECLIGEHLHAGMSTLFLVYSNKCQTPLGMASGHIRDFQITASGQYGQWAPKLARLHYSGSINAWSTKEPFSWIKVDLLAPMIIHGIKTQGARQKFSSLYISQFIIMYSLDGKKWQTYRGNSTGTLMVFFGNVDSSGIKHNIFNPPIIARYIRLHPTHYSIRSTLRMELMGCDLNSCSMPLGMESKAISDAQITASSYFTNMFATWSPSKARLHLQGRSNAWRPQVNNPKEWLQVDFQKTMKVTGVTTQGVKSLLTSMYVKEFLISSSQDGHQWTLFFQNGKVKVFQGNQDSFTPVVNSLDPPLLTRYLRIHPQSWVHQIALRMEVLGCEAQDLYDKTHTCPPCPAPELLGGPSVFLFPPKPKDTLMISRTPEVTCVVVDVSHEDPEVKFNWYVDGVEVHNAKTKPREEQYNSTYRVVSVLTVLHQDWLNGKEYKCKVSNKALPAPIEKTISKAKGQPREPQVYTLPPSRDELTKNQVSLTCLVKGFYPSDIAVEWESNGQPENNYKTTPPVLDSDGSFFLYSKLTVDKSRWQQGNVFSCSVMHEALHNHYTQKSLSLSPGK
Sequence of FVIII169/VWF059 heterodimer (chain, as listed by the source, chain 2 of 2): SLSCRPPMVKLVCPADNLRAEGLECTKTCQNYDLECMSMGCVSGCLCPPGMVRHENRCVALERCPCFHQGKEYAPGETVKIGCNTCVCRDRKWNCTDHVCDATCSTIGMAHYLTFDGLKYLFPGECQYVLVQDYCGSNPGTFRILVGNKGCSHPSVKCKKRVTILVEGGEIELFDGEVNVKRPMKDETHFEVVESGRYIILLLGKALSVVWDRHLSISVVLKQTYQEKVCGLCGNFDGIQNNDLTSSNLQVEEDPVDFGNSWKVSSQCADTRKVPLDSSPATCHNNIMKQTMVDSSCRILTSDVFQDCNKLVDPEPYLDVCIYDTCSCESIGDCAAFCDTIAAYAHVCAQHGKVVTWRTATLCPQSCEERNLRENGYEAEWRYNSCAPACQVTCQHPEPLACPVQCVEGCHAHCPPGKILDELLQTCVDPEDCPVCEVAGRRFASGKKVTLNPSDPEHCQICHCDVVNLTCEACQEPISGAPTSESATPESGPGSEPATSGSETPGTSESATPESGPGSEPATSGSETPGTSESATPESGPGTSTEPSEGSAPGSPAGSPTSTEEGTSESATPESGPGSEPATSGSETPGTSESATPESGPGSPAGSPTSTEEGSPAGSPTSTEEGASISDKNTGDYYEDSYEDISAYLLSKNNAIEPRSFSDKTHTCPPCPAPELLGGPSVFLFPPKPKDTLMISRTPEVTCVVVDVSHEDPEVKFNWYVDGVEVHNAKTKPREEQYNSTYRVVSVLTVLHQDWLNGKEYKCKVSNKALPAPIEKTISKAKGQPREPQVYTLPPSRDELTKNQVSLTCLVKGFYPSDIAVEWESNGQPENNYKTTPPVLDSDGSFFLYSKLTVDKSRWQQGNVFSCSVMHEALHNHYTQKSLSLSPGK

Sequence of FVIII169/VWF057 heterodimer (chain, as listed by the source, chain 1 of 2): as the sequence (chain, as listed by the source, chain 1 of 2) above
Sequence of FVIII169/VWF057 heterodimer (chain, as listed by the source, chain 2 of 2): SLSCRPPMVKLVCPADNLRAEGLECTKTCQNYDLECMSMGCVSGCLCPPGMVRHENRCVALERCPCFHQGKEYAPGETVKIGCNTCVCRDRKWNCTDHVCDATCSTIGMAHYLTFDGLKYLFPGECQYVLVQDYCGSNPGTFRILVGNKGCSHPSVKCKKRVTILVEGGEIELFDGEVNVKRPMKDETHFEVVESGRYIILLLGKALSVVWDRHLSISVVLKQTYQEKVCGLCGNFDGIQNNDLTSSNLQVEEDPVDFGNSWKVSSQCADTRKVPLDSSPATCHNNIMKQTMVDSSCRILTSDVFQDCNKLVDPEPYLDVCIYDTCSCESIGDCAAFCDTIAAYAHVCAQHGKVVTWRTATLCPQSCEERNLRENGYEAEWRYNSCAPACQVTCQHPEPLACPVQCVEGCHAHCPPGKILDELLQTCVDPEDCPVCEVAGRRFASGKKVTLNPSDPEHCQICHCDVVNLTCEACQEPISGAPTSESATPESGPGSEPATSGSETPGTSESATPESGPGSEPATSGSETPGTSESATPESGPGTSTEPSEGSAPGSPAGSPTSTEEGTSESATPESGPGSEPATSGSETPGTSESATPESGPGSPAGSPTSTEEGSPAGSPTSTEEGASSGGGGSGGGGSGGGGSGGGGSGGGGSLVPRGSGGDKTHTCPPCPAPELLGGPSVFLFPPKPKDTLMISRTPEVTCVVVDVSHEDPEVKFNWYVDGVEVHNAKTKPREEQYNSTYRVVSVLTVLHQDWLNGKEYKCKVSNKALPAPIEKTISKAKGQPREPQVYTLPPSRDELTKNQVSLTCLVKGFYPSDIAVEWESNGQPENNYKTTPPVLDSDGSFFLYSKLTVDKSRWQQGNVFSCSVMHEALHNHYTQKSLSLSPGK

human α-thrombin
thrombin digestion, release of D′D3 from Fc (SDS-PAGE / western blot time course, FVIII:thrombin about 22:1, 37° C.) [1]: Un-cleaved FVIII169/VWF057 remained after 15 minutes
thrombin cleavage by mass spectroscopy (MS) [2]: By MS, FVIII 169/VWF059 again showed better release of D′D3 from Fc as compared to VWF057
thrombin digestion, release of D′D3 from Fc (SDS-PAGE / western blot time course, FVIII:thrombin about 22:1, 37° C.) [2]: little to no detectable un-cleaved FVIII 169/VWF059 after 5 minutes
